Experimental data: patent US20140087995A1 (published 2014)
Numbered stars: 1 amine (or outer) side, 2 acyl side, 3 side chain; on linkers, the order of the positions; unused ones are H or OH. Bridge positions count the residues as written; N and C are the ends. Side chains are listed from the residue outwards. Ends that are not written are not given here. * marks the point of attachment. C20 diacid = O=C(O)CCCCCCCCCCCCCCCCCCC(=O)*; γGlu = O=C(O)[C@H](CCC(=O)[*:2])N[*:1]

T1: human amylin 3(a) receptor (human calcitonin receptor plus RAMP-3) (human, UniProt P30988 25-474; O60896 24-148, limits assumed)
T1 construct: whole, on cells; Whole cells in the luciferase assay (Assay II a); also called hAmylin-R; human amylin receptor
T1 sequence (looked up) 1: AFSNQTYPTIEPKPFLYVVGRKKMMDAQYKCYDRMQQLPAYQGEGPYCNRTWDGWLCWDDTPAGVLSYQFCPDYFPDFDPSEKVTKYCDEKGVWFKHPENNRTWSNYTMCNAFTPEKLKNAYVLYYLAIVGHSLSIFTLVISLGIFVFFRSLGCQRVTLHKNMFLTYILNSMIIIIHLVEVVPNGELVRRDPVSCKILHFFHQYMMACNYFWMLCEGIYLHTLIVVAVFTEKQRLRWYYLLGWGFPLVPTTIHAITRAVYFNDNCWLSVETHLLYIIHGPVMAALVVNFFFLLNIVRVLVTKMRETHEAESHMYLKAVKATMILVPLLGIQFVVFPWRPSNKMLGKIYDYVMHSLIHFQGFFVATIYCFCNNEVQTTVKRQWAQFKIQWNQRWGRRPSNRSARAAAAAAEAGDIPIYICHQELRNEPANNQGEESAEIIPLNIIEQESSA
T1 sequence (looked up) 2: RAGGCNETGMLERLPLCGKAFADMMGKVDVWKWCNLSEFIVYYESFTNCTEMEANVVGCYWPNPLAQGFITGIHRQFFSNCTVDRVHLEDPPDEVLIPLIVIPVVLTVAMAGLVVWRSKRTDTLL

T2: human calcitonin receptor (human, UniProt P30988 25-474)
T2 sequence (looked up): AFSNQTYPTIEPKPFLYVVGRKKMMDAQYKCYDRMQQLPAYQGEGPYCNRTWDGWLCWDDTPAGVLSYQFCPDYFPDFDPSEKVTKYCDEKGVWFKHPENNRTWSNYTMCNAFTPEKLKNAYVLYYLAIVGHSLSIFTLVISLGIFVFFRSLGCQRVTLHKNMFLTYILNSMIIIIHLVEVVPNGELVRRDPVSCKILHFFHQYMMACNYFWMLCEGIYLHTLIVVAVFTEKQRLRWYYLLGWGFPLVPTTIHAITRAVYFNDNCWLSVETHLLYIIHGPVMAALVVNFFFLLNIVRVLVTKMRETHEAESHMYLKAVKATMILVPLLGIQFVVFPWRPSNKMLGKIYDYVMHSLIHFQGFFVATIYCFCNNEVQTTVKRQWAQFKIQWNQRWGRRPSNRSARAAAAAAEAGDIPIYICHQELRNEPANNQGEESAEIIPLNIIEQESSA


Assays:
[1] = target: T1, human amylin 3(a) receptor (human …); test: SPA competition binding, displacement of 125I-rat amylin from membranes of Amylin 3(a)/CRE-luc BHK cells (Assay V)
How it was run: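 SPA beads + BHK amylin 3(a)/CRE-luc membranes, 35 ng/μL final; buffer 50 mM Hepes pH 7.4, 1 mM CaCl2, 5 mM MgCl₂, 0.1% OA, 0.02% Tween20. 120 min, 25° C, shaken; scintillation count. IC₅₀ by one-site binding competition fit, taken as receptor affinity.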

[2] = target: T1, human amylin 3(a) receptor (human …); test: cell-based or functional assay
[3] = target: T2, human calcitonin receptor; test: cell-based or functional assay

Row | IC50 [1] [nM] | Ratio hCT/hAmylin funct. [2] | hAmylin-R funct. EC50 [2] [nM] | hCTR funct. EC50 [3] [nM] | Binder
1 | 0.75 | 8.5 | 0.773 | 6.55 | K([γGlu-γGlu-C20 diacid])CNTATCATQRLAEFLRHSSPNFGAIPSSTNVGRNTY-NH2 (disulfide 2-7; N-terminus assumed; SMILES CC[C@H](C)[C@H](NC(=O)[C@H](C)NC(=O)CNC(=O)[C@H](Cc1ccccc1)NC(=O)[C@H](CC(N)=O)NC(=O)[C@@H]1CCCN1C(=O)[C@H](CO)NC(=O)[C@H](CO)NC(=O)[C@H](Cc1c[nH]cn1)NC(=O)[C@H](CCCNC(=N)N)NC(=O)[C@H](CC(C)C)NC(=O)[C@H](Cc1ccccc1)NC(=O)[C@H](CCC(=O)O)NC(=O)[C@H](C)NC(=O)[C@H](CC(C)C)NC(=O)[C@H](CCCNC(=N)N)NC(=O)[C@H](CCC(N)=O)NC(=O)[C@@H](NC(=O)[C@H](C)NC(=O)[C@@H]1CSSC[C@H](NC(=O)[C@@H](N)CCCCNC(=O)CC[C@H](NC(=O)CC[C@H](NC(=O)CCCCCCCCCCCCCCCCCCC(=O)O)C(=O)O)C(=O)O)C(=O)N[C@@H](CC(N)=O)C(=O)N[C@@H]([C@@H](C)O)C(=O)N[C@@H](C)C(=O)N[C@@H]([C@@H](C)O)C(=O)N1)[C@@H](C)O)C(=O)N1CCC[C@H]1C(=O)N[C@@H](CO)C(=O)N[C@@H](CO)C(=O)N[C@H](C(=O)N[C@@H](CC(N)=O)C(=O)N[C@H](C(=O)NCC(=O)N[C@@H](CCCNC(=N)N)C(=O)N[C@@H](CC(N)=O)C(=O)N[C@H](C(=O)N[C@@H](Cc1ccc(O)cc1)C(N)=O)[C@@H](C)O)C(C)C)[C@@H](C)O, also called compound 88)
2 | 1.16 | 27.8 | 0.404 | 11.2 | K([γGlu-γGlu-C20 diacid])CNTATCATQRLAEFLRHSSPNFGAIPSSTNVGSRTY-NH2 (disulfide 2-7; N-terminus assumed; SMILES CC[C@H](C)[C@H](NC(=O)[C@H](C)NC(=O)CNC(=O)[C@H](Cc1ccccc1)NC(=O)[C@H](CC(N)=O)NC(=O)[C@@H]1CCCN1C(=O)[C@H](CO)NC(=O)[C@H](CO)NC(=O)[C@H](Cc1c[nH]cn1)NC(=O)[C@H](CCCNC(=N)N)NC(=O)[C@H](CC(C)C)NC(=O)[C@H](Cc1ccccc1)NC(=O)[C@H](CCC(=O)O)NC(=O)[C@H](C)NC(=O)[C@H](CC(C)C)NC(=O)[C@H](CCCNC(=N)N)NC(=O)[C@H](CCC(N)=O)NC(=O)[C@@H](NC(=O)[C@H](C)NC(=O)[C@@H]1CSSC[C@H](NC(=O)[C@@H](N)CCCCNC(=O)CC[C@H](NC(=O)CC[C@H](NC(=O)CCCCCCCCCCCCCCCCCCC(=O)O)C(=O)O)C(=O)O)C(=O)N[C@@H](CC(N)=O)C(=O)N[C@@H]([C@@H](C)O)C(=O)N[C@@H](C)C(=O)N[C@@H]([C@@H](C)O)C(=O)N1)[C@@H](C)O)C(=O)N1CCC[C@H]1C(=O)N[C@@H](CO)C(=O)N[C@@H](CO)C(=O)N[C@H](C(=O)N[C@@H](CC(N)=O)C(=O)N[C@H](C(=O)NCC(=O)N[C@@H](CO)C(=O)N[C@@H](CCCNC(=N)N)C(=O)N[C@H](C(=O)N[C@@H](Cc1ccc(O)cc1)C(N)=O)[C@@H](C)O)C(C)C)[C@@H](C)O, also called compound 89)
3 | 0.525 |  | 0.445 | 7.05 | K([γGlu-γGlu-C20 diacid])CNTATCATQRLAEFLRHSSPNFGAIPSSTNVGHETY-NH2 (disulfide 2-7; N-terminus assumed; SMILES CC[C@H](C)[C@H](NC(=O)[C@H](C)NC(=O)CNC(=O)[C@H](Cc1ccccc1)NC(=O)[C@H](CC(N)=O)NC(=O)[C@@H]1CCCN1C(=O)[C@H](CO)NC(=O)[C@H](CO)NC(=O)[C@H](Cc1c[nH]cn1)NC(=O)[C@H](CCCNC(=N)N)NC(=O)[C@H](CC(C)C)NC(=O)[C@H](Cc1ccccc1)NC(=O)[C@H](CCC(=O)O)NC(=O)[C@H](C)NC(=O)[C@H](CC(C)C)NC(=O)[C@H](CCCNC(=N)N)NC(=O)[C@H](CCC(N)=O)NC(=O)[C@@H](NC(=O)[C@H](C)NC(=O)[C@@H]1CSSC[C@H](NC(=O)[C@@H](N)CCCCNC(=O)CC[C@H](NC(=O)CC[C@H](NC(=O)CCCCCCCCCCCCCCCCCCC(=O)O)C(=O)O)C(=O)O)C(=O)N[C@@H](CC(N)=O)C(=O)N[C@@H]([C@@H](C)O)C(=O)N[C@@H](C)C(=O)N[C@@H]([C@@H](C)O)C(=O)N1)[C@@H](C)O)C(=O)N1CCC[C@H]1C(=O)N[C@@H](CO)C(=O)N[C@@H](CO)C(=O)N[C@H](C(=O)N[C@@H](CC(N)=O)C(=O)N[C@H](C(=O)NCC(=O)N[C@@H](Cc1c[nH]cn1)C(=O)N[C@@H](CCC(=O)O)C(=O)N[C@H](C(=O)N[C@@H](Cc1ccc(O)cc1)C(N)=O)[C@@H](C)O)C(C)C)[C@@H](C)O)
4 | 0.633 | 3.8 | 0.285 | 1.09 | K([γGlu-γGlu-C20 diacid])CNTATCATQRLAEFLRHSSPNFGAIPSSTNVGHNTY-NH2 (disulfide 2-7; N-terminus assumed; SMILES CC[C@H](C)[C@H](NC(=O)[C@H](C)NC(=O)CNC(=O)[C@H](Cc1ccccc1)NC(=O)[C@H](CC(N)=O)NC(=O)[C@@H]1CCCN1C(=O)[C@H](CO)NC(=O)[C@H](CO)NC(=O)[C@H](Cc1c[nH]cn1)NC(=O)[C@H](CCCNC(=N)N)NC(=O)[C@H](CC(C)C)NC(=O)[C@H](Cc1ccccc1)NC(=O)[C@H](CCC(=O)O)NC(=O)[C@H](C)NC(=O)[C@H](CC(C)C)NC(=O)[C@H](CCCNC(=N)N)NC(=O)[C@H](CCC(N)=O)NC(=O)[C@@H](NC(=O)[C@H](C)NC(=O)[C@@H]1CSSC[C@H](NC(=O)[C@@H](N)CCCCNC(=O)CC[C@H](NC(=O)CC[C@H](NC(=O)CCCCCCCCCCCCCCCCCCC(=O)O)C(=O)O)C(=O)O)C(=O)N[C@@H](CC(N)=O)C(=O)N[C@@H]([C@@H](C)O)C(=O)N[C@@H](C)C(=O)N[C@@H]([C@@H](C)O)C(=O)N1)[C@@H](C)O)C(=O)N1CCC[C@H]1C(=O)N[C@@H](CO)C(=O)N[C@@H](CO)C(=O)N[C@H](C(=O)N[C@@H](CC(N)=O)C(=O)N[C@H](C(=O)NCC(=O)N[C@@H](Cc1c[nH]cn1)C(=O)N[C@@H](CC(N)=O)C(=O)N[C@H](C(=O)N[C@@H](Cc1ccc(O)cc1)C(N)=O)[C@@H](C)O)C(C)C)[C@@H](C)O, also called compound 87)
